Earlier results in paper PMC4526808.
Read-outs that look alike come from different tables or passages of the source. One block for each substance: values may come before it.

Key:
[1] = biological target: PKA RIIα D/D domain (UniProt P13861)
[2] = biological target: PKA RIα D/D domain (UniProt P10644)
[3] = biological target: PKA RIIα D/D domain (UniProt P13861); remark: listed apart in the source
[4] = biological target: PKA RIIα D/D domain (UniProt P13861); remark: listed apart in the source
[5] = biological target: PKA RIα D/D domain (UniProt P10644); remark: listed apart in the source

Chain of UniProt P13861 (P13861 2-45): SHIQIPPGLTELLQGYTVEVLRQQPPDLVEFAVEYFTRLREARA
Chain of UniProt P10644 (P10644 1-61): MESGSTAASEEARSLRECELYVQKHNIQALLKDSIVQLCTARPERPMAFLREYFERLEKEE

Kd [1]: 0.4 nM
Substance: AKAP-is

Kd [2]: 1300 nM
Kd [3]: 2.2 nM
Substance: Ht31

Kd [4]: 1800 nM
Kd [5]: 1 nM
Substance: RIAD
